Measurements from patent US20200071711, “MODULAR CONSTRUCTION OF SYNTHETIC GENE CIRCUITS IN MAMMALIAN CELLS USING MATHEMATICAL MODELING OF CLOSED LOOP TRANSCRIPTIONAL REPRESSORS” (Tsinghua University, published 2020).

Columns and labels:
Assay in all cases: cell_activity; HEK293, two sites flanking CMVmini
Settings in all cases: tags: EYFP-2A upstream, SV40 NLS
[1] = molecular target: T1, TALER15 (synthetic, UniProt B2SU53 SEQ:1-1010)
T1 chain: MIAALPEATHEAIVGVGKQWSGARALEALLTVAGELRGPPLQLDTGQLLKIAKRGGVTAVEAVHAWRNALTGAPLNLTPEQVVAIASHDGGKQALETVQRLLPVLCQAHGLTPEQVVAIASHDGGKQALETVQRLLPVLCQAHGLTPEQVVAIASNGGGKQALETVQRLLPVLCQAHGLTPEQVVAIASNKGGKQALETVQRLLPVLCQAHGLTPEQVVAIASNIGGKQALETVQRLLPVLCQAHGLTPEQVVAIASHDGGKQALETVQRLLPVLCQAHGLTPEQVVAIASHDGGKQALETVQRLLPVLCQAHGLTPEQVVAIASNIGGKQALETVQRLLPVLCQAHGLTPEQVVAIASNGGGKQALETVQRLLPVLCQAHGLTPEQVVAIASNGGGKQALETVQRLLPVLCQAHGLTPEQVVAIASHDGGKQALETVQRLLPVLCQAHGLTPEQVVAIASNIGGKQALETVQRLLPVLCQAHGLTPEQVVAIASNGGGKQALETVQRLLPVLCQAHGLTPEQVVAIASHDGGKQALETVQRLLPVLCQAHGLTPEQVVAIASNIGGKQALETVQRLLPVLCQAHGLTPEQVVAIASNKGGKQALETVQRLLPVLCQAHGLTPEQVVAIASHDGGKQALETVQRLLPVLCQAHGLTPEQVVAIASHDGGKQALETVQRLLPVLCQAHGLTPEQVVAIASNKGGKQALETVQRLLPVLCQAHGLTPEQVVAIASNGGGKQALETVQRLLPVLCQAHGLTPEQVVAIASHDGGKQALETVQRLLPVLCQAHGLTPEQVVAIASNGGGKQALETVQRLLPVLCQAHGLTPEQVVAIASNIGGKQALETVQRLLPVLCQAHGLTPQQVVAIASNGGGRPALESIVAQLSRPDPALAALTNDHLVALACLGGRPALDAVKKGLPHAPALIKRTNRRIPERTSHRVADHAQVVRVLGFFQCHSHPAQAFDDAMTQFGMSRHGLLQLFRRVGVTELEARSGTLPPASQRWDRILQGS

[2] = molecular target: T2, TALER20 (synthetic, UniProt B2SU53 SEQ:1-1010)
T2 chain: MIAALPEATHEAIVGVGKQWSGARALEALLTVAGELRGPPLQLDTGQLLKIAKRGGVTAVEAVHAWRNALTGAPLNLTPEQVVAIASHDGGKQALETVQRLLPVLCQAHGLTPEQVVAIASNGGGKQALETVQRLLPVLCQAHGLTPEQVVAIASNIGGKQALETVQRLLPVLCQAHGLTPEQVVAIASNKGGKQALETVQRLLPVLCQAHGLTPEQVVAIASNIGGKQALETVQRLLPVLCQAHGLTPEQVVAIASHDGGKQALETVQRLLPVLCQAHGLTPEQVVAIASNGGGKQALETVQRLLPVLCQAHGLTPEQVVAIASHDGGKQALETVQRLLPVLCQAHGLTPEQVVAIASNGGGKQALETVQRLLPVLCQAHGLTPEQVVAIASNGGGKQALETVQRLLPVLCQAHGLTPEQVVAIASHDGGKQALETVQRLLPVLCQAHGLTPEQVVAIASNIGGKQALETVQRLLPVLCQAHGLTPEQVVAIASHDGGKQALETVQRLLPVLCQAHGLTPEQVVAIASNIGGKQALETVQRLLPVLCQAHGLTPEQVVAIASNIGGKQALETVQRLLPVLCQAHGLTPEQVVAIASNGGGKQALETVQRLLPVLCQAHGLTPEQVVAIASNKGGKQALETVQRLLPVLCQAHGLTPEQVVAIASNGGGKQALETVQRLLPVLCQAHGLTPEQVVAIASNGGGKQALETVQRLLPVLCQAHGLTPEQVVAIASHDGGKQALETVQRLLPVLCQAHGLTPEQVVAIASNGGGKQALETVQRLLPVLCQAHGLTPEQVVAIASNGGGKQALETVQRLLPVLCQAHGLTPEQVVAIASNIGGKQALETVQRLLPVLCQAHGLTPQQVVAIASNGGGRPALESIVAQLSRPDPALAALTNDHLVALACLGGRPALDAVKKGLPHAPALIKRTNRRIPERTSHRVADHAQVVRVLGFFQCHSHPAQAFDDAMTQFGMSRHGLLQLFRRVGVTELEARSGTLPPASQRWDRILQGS

[3] = molecular target: T3, TALER12 (synthetic, UniProt Q56830 SEQ:262-1344)
T3 chain: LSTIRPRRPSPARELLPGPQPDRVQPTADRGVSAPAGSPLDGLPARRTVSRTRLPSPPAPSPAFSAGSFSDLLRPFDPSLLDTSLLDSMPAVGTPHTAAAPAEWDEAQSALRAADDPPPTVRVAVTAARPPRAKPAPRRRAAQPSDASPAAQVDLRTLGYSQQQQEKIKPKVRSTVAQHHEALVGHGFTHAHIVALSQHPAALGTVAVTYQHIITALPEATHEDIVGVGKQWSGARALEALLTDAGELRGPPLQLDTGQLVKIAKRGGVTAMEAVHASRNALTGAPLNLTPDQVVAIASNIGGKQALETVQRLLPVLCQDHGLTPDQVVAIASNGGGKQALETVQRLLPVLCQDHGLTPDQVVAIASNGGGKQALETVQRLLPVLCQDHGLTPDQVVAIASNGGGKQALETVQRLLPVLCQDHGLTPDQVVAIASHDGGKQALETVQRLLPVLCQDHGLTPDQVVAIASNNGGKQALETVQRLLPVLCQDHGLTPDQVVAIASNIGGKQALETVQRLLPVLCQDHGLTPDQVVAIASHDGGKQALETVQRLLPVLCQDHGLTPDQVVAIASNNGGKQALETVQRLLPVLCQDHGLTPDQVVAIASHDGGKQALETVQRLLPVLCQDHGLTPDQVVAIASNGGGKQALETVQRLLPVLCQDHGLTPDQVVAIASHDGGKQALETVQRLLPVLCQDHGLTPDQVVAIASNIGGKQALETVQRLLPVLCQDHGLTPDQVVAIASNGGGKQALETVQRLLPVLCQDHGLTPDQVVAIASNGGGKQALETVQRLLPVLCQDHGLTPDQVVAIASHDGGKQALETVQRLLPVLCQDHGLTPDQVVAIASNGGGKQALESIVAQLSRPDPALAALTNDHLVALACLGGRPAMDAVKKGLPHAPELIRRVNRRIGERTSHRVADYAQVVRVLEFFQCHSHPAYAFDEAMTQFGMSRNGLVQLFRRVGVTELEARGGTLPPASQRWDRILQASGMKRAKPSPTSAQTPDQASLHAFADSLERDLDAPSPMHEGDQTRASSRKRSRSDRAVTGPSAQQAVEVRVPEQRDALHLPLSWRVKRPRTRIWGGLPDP

[4] = molecular target: T4, TALER18 (synthetic, UniProt B2SU53 SEQ:1-1010)
T4 chain: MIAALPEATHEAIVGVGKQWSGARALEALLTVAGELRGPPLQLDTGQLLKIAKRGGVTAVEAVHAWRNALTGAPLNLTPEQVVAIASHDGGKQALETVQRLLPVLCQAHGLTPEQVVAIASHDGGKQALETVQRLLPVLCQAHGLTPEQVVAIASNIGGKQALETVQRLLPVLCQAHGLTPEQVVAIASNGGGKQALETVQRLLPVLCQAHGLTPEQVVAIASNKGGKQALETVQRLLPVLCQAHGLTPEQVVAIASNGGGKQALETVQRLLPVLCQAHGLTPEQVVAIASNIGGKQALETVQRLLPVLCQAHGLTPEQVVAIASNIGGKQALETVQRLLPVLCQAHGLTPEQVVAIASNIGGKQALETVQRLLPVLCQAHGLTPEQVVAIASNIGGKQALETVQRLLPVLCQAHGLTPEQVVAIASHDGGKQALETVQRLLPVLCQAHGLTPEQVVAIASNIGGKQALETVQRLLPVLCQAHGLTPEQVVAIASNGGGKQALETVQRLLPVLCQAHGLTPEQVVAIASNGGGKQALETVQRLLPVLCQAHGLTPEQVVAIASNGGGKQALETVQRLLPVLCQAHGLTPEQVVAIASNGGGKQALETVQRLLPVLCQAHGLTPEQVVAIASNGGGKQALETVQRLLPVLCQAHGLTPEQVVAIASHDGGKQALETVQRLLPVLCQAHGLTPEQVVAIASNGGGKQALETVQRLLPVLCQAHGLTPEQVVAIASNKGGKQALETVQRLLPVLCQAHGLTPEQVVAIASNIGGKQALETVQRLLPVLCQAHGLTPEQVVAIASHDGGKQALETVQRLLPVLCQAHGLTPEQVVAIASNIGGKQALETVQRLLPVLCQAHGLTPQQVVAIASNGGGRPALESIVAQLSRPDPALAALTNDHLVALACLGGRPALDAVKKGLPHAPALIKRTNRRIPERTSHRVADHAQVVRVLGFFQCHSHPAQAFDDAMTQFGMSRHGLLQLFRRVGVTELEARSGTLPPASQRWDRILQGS

[5] = molecular target: T5, TALER17 (synthetic, UniProt B2SU53 SEQ:1-1010)
T5 chain: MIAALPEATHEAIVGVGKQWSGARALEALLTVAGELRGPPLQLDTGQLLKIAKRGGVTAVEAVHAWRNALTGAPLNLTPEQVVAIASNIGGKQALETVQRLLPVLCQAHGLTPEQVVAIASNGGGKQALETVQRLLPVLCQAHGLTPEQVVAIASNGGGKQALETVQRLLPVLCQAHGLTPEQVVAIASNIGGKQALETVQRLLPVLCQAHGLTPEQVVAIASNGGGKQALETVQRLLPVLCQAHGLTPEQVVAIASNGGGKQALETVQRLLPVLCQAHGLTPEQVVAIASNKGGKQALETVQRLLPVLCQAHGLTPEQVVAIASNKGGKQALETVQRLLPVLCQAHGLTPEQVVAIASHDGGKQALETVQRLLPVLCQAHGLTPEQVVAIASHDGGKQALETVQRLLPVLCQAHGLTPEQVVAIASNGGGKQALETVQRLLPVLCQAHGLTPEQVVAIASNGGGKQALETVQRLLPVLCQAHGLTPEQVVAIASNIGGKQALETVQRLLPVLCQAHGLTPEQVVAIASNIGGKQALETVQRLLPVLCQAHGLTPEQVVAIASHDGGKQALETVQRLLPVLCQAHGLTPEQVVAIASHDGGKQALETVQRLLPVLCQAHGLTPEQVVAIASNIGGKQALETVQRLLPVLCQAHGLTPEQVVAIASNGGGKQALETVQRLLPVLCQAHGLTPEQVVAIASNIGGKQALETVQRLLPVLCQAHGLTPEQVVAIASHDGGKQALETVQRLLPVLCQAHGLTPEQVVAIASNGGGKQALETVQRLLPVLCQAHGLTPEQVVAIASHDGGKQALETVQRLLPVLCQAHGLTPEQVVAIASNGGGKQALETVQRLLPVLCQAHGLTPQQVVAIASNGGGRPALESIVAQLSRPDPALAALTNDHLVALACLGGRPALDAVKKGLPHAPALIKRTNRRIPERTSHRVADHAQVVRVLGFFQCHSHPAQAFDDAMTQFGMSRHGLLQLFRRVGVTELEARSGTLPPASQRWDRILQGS

B1: T15 site (dsDNA)
DNA 1: TCCTGACCATTCATCAGCCGTCTAT
DNA 2: ATAGACGGCTGATGAATGGTCAGGA
binding signal [1]: 13.7 fold repression

B2: T20 site (dsDNA)
DNA 1: TCTAGACTCTTCACAATGTTCTTAT
DNA 2: ATAAGAACATTGTGAAGAGTCTAGA
binding signal [2]: 12.3 fold repression

B3: T12 site (dsDNA)
DNA 1: TATTTCGACGCTCATTCT
DNA 2: AGAATGAGCGTCGAAATA
binding signal [3]: 1220 fold repression

B4: T18 site (dsDNA)
DNA 1: TCCATGTAAAACATTTTTCTGACAT
DNA 2: ATGTCAGAAAAATGTTTTACATGGA
binding signal [4]: 18.5 fold repression

B5: T17 site (dsDNA)
DNA 1: TATTATTGGCCTTAACCATACTCTT
DNA 2: AAGAGTATGGTTAAGGCCAATAATA
binding signal [5]: 195 fold repression
